Reference: paper PMC4176161

Experiments:
[1] = target: T1, …3 (SEP3) (Arabidopsis thaliana), O22456; assay: native gel or EMSA; settings: remark: other sources report otherwise
T1 chain: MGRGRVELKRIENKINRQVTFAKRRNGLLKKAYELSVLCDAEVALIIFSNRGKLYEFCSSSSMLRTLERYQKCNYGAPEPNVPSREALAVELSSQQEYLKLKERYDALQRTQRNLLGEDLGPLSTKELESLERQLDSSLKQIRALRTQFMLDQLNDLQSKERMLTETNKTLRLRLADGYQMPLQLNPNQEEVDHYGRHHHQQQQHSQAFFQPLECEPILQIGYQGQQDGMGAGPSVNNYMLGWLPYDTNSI

[2] = target: T1, …3 (SEP3) (Arabidopsis thaliana), O22456; assay: native gel or EMSA; settings: remark: other sources report otherwise

B1: …3 (SEP3), O22456 1-251 (natural protein)
chain: MGRGRVELKRIENKINRQVTFAKRRNGLLKKAYELSVLCDAEVALIIFSNRGKLYEFCSSSSMLRTLERYQKCNYGAPEPNVPSREALAVELSSQQEYLKLKERYDALQRTQRNLLGEDLGPLSTKELESLERQLDSSLKQIRALRTQFMLDQLNDLQSKERMLTETNKTLRLRLADGYQMPLQLNPNQEEVDHYGRHHHQQQQHSQAFFQPLECEPILQIGYQGQQDGMGAGPSVNNYMLGWLPYDTNSI
- stoichiometry N [1]: 2
- stoichiometry N [2]: 4
